Reference: patent US6372898 (SCHERING, dated 2002)

Assays:
[1] = biological target: T1, cytokine receptor common gamma chain (γc), wild type
T1 chain: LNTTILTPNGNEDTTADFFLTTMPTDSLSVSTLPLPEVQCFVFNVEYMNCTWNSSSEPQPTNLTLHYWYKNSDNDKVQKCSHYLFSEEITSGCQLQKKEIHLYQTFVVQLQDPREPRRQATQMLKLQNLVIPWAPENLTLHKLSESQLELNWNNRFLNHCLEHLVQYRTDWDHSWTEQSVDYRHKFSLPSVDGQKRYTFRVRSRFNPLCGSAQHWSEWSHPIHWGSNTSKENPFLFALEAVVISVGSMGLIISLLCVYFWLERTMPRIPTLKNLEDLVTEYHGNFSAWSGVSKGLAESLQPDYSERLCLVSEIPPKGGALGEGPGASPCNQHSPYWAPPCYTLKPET

[2] = biological target: T2, cytokine receptor common gamma chain (γc), wild type (human, UniProt P31785 23-369); experiment: co-immunoprecipitation from 293T lysates; anti-FLAG M2 IP of FLAG-tagged Jak3, blot for γc
T2 construct: also called WT γc; gc
T2 sequence: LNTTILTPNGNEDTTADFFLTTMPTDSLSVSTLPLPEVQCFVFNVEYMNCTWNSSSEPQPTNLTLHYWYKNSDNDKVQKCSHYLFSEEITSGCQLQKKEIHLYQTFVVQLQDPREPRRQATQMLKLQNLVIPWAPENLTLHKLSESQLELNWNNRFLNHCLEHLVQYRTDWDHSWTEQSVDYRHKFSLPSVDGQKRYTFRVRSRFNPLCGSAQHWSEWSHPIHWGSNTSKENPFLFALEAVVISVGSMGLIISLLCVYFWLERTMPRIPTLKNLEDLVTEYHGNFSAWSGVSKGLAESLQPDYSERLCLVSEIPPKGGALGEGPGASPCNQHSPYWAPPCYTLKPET
Method: (§1) Lysates were centrifuged at 12,000×g, and NaCl was added to 500 mM final concentration. Lysates were immunoprecipitated with the appropriate antibody. Rabbit polyclonal, mouse monoclonal (M2), and Sepharose-conjugated M2 anti-FLAG antibodies were purchased from Kodak Scientific Imaging Systems (Rochester, N.Y.), Goat anti-γ_c antibody was purchased from R&D (Minneapolis, Minn.). Lysates were boiled, and subjected to 8% SDS-PAGE or 12% SDS-PAGE for experiments with Jak3 fragments, and electrotransferred onto […] membranes (Immobilon-P, Millipore, Bradford, Mass.). Membranes were probed with one of the following antibodies: Mouse monoclonal M2 anti-FLAG antibody, rabbit polyclonal anti-γ_c antibody, or mouse monoclonal anti-Myc tag antibody 9E10 (Santa Cruz Biotechnology, Santa Cruz, Calif.). For the immunoprecipitation with EBV-transformed B cell lines and the IL-2R expressing fibroblasts, cells were lysed as described above, except with a final NaCl concentration of 150 mM. Lysates were immunoprecipitated with monoclonal (M2) anti-FLAG antibody, rabbit polyclonal antibody directed against the C-terminus of Jak3 (α-Jak3; Kawamura, et al. (1994) *Proc Nat'l Acad Sci USA* 91:6374–8) or rabbit polyclonal antibody specific for STAT5b (Santa Cruz Biotechnology, Santa Cruz, Calif.). Immunoprecipitates were then washed, boiled, and resolved using SDS-PAGE. […]

[3] = biological target: T2, cytokine receptor common gamma chain …; experiment: co-immunoprecipitation, 293T cells
[4] = biological target: T2, cytokine receptor common gamma chain …; experiment: co-immunoprecipitation from 293T lysates; γc precipitated, blot for the epitope-tagged Jak3 fragment
Method: as §1

B1: Jak3 Y100C (enzyme)
chain: MAPPSEETPLIPQRSCSLLSTEAGALHVLLPARAPGPPQRLSFSFGDHLAEDLCVQAAKASGILPVYHSLFALATEDLSCWFPPSHIFSVEDASTQVLLCRIRFYFPNWFGLEKCHRFGLRKDLASAILDLPVLEHLFAQHRSDLVSGRLPVGLSLKEQGECLSLAVLDLARMAREQAQRPGELLKTVSYKACLPPSLRDLIQGLSFVTRRAIRRTVRRALPRVAACQADRHSLMAKYIMDLERLDPAGAAETFHVGLPGALGGHDGLGLLRVAGDGGIAWTQGEQEVLQPFCDFPEIVDISIKQAPRVGPAGEHRLVTVTRTDNQILEAEFPGLPEALSFVALVDGYFRLTTDSQHFFCKEVAPPRLLEEVAEQCHGPITLDFAINKLKTGGSRPGSYVLRRSPQDFDSFLLTVCVQNPLGPDYKGCLIRRSPTGTFLLVGLSRPHSSLRELLATCWDGGLHVDGVAVTLTSCCIPRPKEKSNLIVVQRGHSPPTSSLVQPQSQYQLSQMTFHKIPADSLEWHENLGHGSFTKIYRGCRHEVVDGEARKTEVLLKVMDAKHKNCMESFLEAASLMSQVSYRHLVLLHGVCMAGDSTMVQEFVHLGAIDMYLRKRGHLVPASWKLQVVKQLAYALNYLEDKGLPHGNVSARKVLLAREGADGSPPFIKLSDPGVSPAVLSLEMLTDRIPWVAPECLREAQTLSLEADKWGFGATVWEVFSGVTMPISALDPAKKLQFYEDRQQLPAPKWTELALLIQQCMAYEPVQRPSFRAVIRDLNSLISSDYELLSDPTPGALAPRDGLWNGAQLYACQDPTIFEERHLKYISQLGKGNFGSVELCRYDPLAHNTGALVAVKQLQHSGPDQQRDFQREIQILKALHSDFIVKYRGVSYGPGRPELRLVMEYLPSGCLRDFLQRHRARLDASRLLLYSSQICKGMEYLGSRRCVHRDLAARNILVESEAHVKIADFGLAKLLPLDKDYYVVREPGQSPIFWYAPESLSDNIFSRQSDVWSFGVVLYELFTYCDKSCSPSAEFLRMMGCERDVPALCRLLELLEEGQRLPAPPACPAEVHELMKLCWAPSPQDRPSFSALGPQLDMLWSGSRGCETHAFTAHPEGKHHSLSFS
notes: also called Y100C mutant; patient mutant; not shown: C-terminal FLAG tag (single copy) joined through a ClaI site
B1 was tested, and the “IL-2 induced tyrosine phosphorylation of Jak3 in IL-2R+ fibroblasts” value [1] was “no IL-2-induced phosphorylation of Jak3 Y100C was observed” and the binding result [2] was “no binding”.

B2: Jak3 Y100C/K855A (enzyme)
chain: MAPPSEETPLIPQRSCSLLSTEAGALHVLLPARAPGPPQRLSFSFGDHLAEDLCVQAAKASGILPVYHSLFALATEDLSCWFPPSHIFSVEDASTQVLLCRIRFYFPNWFGLEKCHRFGLRKDLASAILDLPVLEHLFAQHRSDLVSGRLPVGLSLKEQGECLSLAVLDLARMAREQAQRPGELLKTVSYKACLPPSLRDLIQGLSFVTRRAIRRTVRRALPRVAACQADRHSLMAKYIMDLERLDPAGAAETFHVGLPGALGGHDGLGLLRVAGDGGIAWTQGEQEVLQPFCDFPEIVDISIKQAPRVGPAGEHRLVTVTRTDNQILEAEFPGLPEALSFVALVDGYFRLTTDSQHFFCKEVAPPRLLEEVAEQCHGPITLDFAINKLKTGGSRPGSYVLRRSPQDFDSFLLTVCVQNPLGPDYKGCLIRRSPTGTFLLVGLSRPHSSLRELLATCWDGGLHVDGVAVTLTSCCIPRPKEKSNLIVVQRGHSPPTSSLVQPQSQYQLSQMTFHKIPADSLEWHENLGHGSFTKIYRGCRHEVVDGEARKTEVLLKVMDAKHKNCMESFLEAASLMSQVSYRHLVLLHGVCMAGDSTMVQEFVHLGAIDMYLRKRGHLVPASWKLQVVKQLAYALNYLEDKGLPHGNVSARKVLLAREGADGSPPFIKLSDPGVSPAVLSLEMLTDRIPWVAPECLREAQTLSLEADKWGFGATVWEVFSGVTMPISALDPAKKLQFYEDRQQLPAPKWTELALLIQQCMAYEPVQRPSFRAVIRDLNSLISSDYELLSDPTPGALAPRDGLWNGAQLYACQDPTIFEERHLKYISQLGKGNFGSVELCRYDPLAHNTGALVAVAQLQHSGPDQQRDFQREIQILKALHSDFIVKYRGVSYGPGRPELRLVMEYLPSGCLRDFLQRHRARLDASRLLLYSSQICKGMEYLGSRRCVHRDLAARNILVESEAHVKIADFGLAKLLPLDKDYYVVREPGQSPIFWYAPESLSDNIFSRQSDVWSFGVVLYELFTYCDKSCSPSAEFLRMMGCERDVPALCRLLELLEEGQRLPAPPACPAEVHELMKLCWAPSPQDRPSFSALGPQLDMLWSGSRGCETHAFTAHPEGKHHSLSFS
notes: also called J3 Y100C/K855A; not shown: C-terminal FLAG or Myc tag joined through a ClaI site
B2: no binding [3].

B3: Jak3 Y100C/Y105F double mutant (enzyme)
chain: MAPPSEETPLIPQRSCSLLSTEAGALHVLLPARAPGPPQRLSFSFGDHLAEDLCVQAAKASGILPVYHSLFALATEDLSCWFPPSHIFSVEDASTQVLLCRIRFFFPNWFGLEKCHRFGLRKDLASAILDLPVLEHLFAQHRSDLVSGRLPVGLSLKEQGECLSLAVLDLARMAREQAQRPGELLKTVSYKACLPPSLRDLIQGLSFVTRRAIRRTVRRALPRVAACQADRHSLMAKYIMDLERLDPAGAAETFHVGLPGALGGHDGLGLLRVAGDGGIAWTQGEQEVLQPFCDFPEIVDISIKQAPRVGPAGEHRLVTVTRTDNQILEAEFPGLPEALSFVALVDGYFRLTTDSQHFFCKEVAPPRLLEEVAEQCHGPITLDFAINKLKTGGSRPGSYVLRRSPQDFDSFLLTVCVQNPLGPDYKGCLIRRSPTGTFLLVGLSRPHSSLRELLATCWDGGLHVDGVAVTLTSCCIPRPKEKSNLIVVQRGHSPPTSSLVQPQSQYQLSQMTFHKIPADSLEWHENLGHGSFTKIYRGCRHEVVDGEARKTEVLLKVMDAKHKNCMESFLEAASLMSQVSYRHLVLLHGVCMAGDSTMVQEFVHLGAIDMYLRKRGHLVPASWKLQVVKQLAYALNYLEDKGLPHGNVSARKVLLAREGADGSPPFIKLSDPGVSPAVLSLEMLTDRIPWVAPECLREAQTLSLEADKWGFGATVWEVFSGVTMPISALDPAKKLQFYEDRQQLPAPKWTELALLIQQCMAYEPVQRPSFRAVIRDLNSLISSDYELLSDPTPGALAPRDGLWNGAQLYACQDPTIFEERHLKYISQLGKGNFGSVELCRYDPLAHNTGALVAVKQLQHSGPDQQRDFQREIQILKALHSDFIVKYRGVSYGPGRPELRLVMEYLPSGCLRDFLQRHRARLDASRLLLYSSQICKGMEYLGSRRCVHRDLAARNILVESEAHVKIADFGLAKLLPLDKDYYVVREPGQSPIFWYAPESLSDNIFSRQSDVWSFGVVLYELFTYCDKSCSPSAEFLRMMGCERDVPALCRLLELLEEGQRLPAPPACPAEVHELMKLCWAPSPQDRPSFSALGPQLDMLWSGSRGCETHAFTAHPEGKHHSLSFS
notes: not shown: C-terminal FLAG tag (single copy) joined through a ClaI site
B3: no binding [2].

B4: Jak3 fragment J3 1-109 (other, not shown: small tags and cut ends)
chain: MAPPSEETPLIPQRSCSLLSTEAGALHVLLPARAPGPPQRLSFSFGDHLAEDLCVQAAKASGILPVYHSLFALATEDLSCWFPPSHIFSVEDASTQVLLYRIRFYFPNW
B4: no binding [4].
